Reference: US20190127480A1 (Regeneron, published 2019)

These binders were tested against human CD3 expressed on cells (Jurkat cells; human T-cells of PBMC) (human, UniProt P09693 23-182; P20963 22-164) (assay: cell-based or functional assay).
Sequence of human CD3 expressed on cells (Jurkat cells; human T-cells of PBMC) (chain, as listed by the source, chain 1 of 4): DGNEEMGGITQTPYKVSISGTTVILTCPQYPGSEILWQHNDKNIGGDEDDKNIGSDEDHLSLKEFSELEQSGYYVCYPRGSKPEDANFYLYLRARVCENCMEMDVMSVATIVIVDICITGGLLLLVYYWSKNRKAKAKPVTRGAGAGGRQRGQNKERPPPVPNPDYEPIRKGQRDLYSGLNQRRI
Sequence of human CD3 expressed on cells (Jurkat cells; human T-cells of PBMC) (chain, as listed by the source, chain 2 of 4): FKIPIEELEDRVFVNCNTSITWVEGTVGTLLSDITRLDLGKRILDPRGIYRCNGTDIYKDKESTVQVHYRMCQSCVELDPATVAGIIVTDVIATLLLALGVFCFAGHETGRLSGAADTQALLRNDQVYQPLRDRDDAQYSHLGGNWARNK
Sequence of human CD3 expressed on cells (Jurkat cells; human T-cells of PBMC) (P09693 23-182, chain 3 of 4): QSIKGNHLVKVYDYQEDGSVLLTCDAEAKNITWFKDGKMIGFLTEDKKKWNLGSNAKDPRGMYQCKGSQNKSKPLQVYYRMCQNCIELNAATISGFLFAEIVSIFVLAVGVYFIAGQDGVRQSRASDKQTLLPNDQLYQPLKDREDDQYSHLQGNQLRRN
Sequence of human CD3 expressed on cells (Jurkat cells; human T-cells of PBMC) (P20963 22-164, chain 4 of 4): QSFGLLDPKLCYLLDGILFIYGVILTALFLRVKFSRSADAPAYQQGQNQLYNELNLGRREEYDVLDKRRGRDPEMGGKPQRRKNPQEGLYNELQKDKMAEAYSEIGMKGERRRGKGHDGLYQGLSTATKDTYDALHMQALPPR

Binder	U937 Cytotoxicity Human T-cells [pM]
H2M2690N (antibody, mouse IgG2, V domains shown) VH: EVQLVESGGGLVQPGRSLRLSCAASGFTFDDYTMHWVRQAPGKGLEWVSGISWNSGSIGYADSVKGRFTISRDNAKKSLYLQMNSLRAEDTALYYCAKDNSGYGHYYYGMDVWGQGTTVTVAS VL: EIVMTQSPATLSVSPGERATLSCRASQSVSSNLAWYQQKPGQAPRLLIYGASTRATGIPARFSGSGSGTEFTLTISSLQSEDFAVYYCQHYINWPLTFGGGTKVEIK	27.9
H2M2708N (antibody, mouse IgG2, V domains shown) VH: QVQLVESGGGVVQPGRSLRLSCAASGFTFRSFGMHWVRQAPGRGLEWVAMIYFDGKNKYYADSVRGRFTISRDNSKNTLYLEMSSLRAEDTAVYFCARGPGYNWLDPWGQGTLVTVSS VL: EIVMTQSPATLSVSPGERVTLSCRASQSISRNLAWYQQKPGQAPRLLIYGASTRATGVPARFSGSGSGTEFTLTISSLQSEDFAVFHCQQYNNRPLTFGGGTEVEIK	3.27
H1M2712N (antibody, mouse IgG1, V domains shown) VH: EVQLVESGGGLVQPGGSLRLSCAATGFTFDDFTMHWVRQAPGKGLEWVSGISWNSGSIGYVDSVKGRFTISRDNAKNSLYLQMNSLRAEDTALYYCAKDNSGYGYYYYGMDVWGQGTTVTVSS VL: EIVMTQSPATLSVSPGERATLSCRASHSVSRNSAWYQQKPGQAPRLLIYGASTRATGIPARFSGSGSGTEFTLTISSLQSEDFAIYYCQQYNNWPLTFGGGTKVEIK	314
H2M2711N (antibody, V domains shown) VH: QVQLVESGGGVVQPGRSLRLSCAASGFTFRSFGMHWVRQAPGRGLEWVAMIYFDGKNKYYADSVRGRFTISRDNSKNTLYLEMSSLRAEDTAVYFCARGPGYNWLDPWGQGTLVTVSS VL: EIVMTQSPATLSVSPGERATLSCRASQSVSRNLAWYQQKPGQAPRLLIYGASTRATGVPARFSGSGSGTEFTLTISSLQSEDFAVFHCQQYNNRPLTFGGGTEVEIK	3.66
H2M2778N (antibody, mouse IgG2, V domains shown) VH: EVQLVESGGGLVQPGRSLRLSCAASGFTFDDYSMHWVRQAPGKGLEWVSGISWNSRSIDYADSVKGRFTISRDNAKNSLYLQMNSLRAEDTALYYCVKDNSGYGRYYYYGMDVWGQGTTVSVSS VL: KIVMTQSPATLSVSPGERATLSCRASQSVSGNLAWYQQKPGQAPRLLIYGASTRATSIPARFSGSGSGTEFTLTISSLQSEDFAVYFCQHYYNWPLTFGGGTKVEIR	0
H2M2774N (antibody, mouse IgG2, V domains shown) VH: QVQLVESGGGVVQPGRSLRLSCVASGFTFRSYGMHWVRQAPGKGLQWVAMIYYDGKNKYYADSVRGRFTISRDNSKNTLYLQMNSLRAEDTAMYFCARGPGYNWLDPWGQGTLVTVSS VL: EIVMTQSPATLSVSPGERATLSCRASQRISSNLAWYQQKPGQAPRLLIYGASTRATGSPARFSGSGSGTEFTLTISSLQSEDVAVYYCQQHNNWPLTFGGGTKVEIK	2.46
H2M2706N (antibody, mouse IgG2, V domains shown) VH: QVQLVESGGGVVQPGRSLRLSCAASGFTFRSYAMHWVRQAPGKGLEWVAMVYYDGNNQYYADSVRGRFTISRDNSKNTLYLQMNSLRADDTAVYFCARGPGYNWLDPWGQGTLVTVSS VL: EIVMTQSPATLSVSPGERATLSCRASQSVSRNLAWYQQKPGQAPRLLIYGASTRATGIPARFSGSGSGTDFTLTISSLQSEDFAVYYCQQYNNWPLTFGGGTKVVIK	7.91
H2M2691N (antibody, mouse IgG2, V domains shown) VH: EVQLVESGGGLVQPGRSLRLSCAASGFTFDDYTMHWVRQAPGKGLEWVSGISWNSGSIGYADSVKGRFTISRDNAKKSLYLQMNSLRAEDTALYYCAKDNSGYGHYYYGMDVWGQGTTVTVAS VL: EIVMTQSPATLSVSPGERATLSCRASQSVSSNLAWYQQKPGQAPRLLIYGASTRATGIPARFSGSGSGTEFTLTISSLQSEDFAVYYCQHYINWPLTFGGGTKVEIK	23.4
H2M2779N (antibody, V domains shown) VH: EVQLVESGGGLVQPGGSLRLSCAATGFTFDDFTMHWVRQAPGKGLEWVSGISWNSGSIGYVDSVKGRFTISRDNAKNSLYLQMNSLRAEDTALYYCAKDNSGYGYYYYGMDVWGQGTTVTVSS VL: not shown	675
H2M2862N (antibody, mouse IgG2, V domains shown) VH: QVQLVESGGGVVQPGRSLRLSCAASGFTFRSYGMHWVRQAPGKGLEWVAMIYYDGNNKKYADSVRGRFTISRDNSKNTLYLQMNSLRVEDTAVYFCARGPGYNWLDPWGQGTLVTVSS VL: EIVMTQSPATLSVSPGERATLSCRASQSVSRNLAWYQQKPGQAPRLLIYGASTRATDIPARFSGSGSGTEFILNISSLQSEDFALYYCQQYSNWPLTFGGGTEVEIK	7.66
H2M2705N (antibody, mouse IgG2, V domains shown) VH: QVQLVESGGGVVQPGRSLRLACVASGFTFRSYGMHWVRQAPGKGLQWVAMIYYDGKNKYYADSVRGRFTISRDNSKNTLYLQMNNLRVEDTAMYFCARGPGYNWLDPWGQGTLVTVSS VL: EIVMTQSPATLSVSPGERATLSCRASQRISSNLAWYQQKPGQAPRLLIYGASTRATGSPARFSGSGSGTDFTLTISSLQSEDVAVYYCQQHHNWPLTFGGGTKVEIK	1.73
H2M2710N (antibody, V domains shown) VH: QVQLVESGGGVVQPGRSLRLSCAASGFTFRSFGMHWVRQAPGRGLEWVAMIYFDGKNKYYADSVRGRFTISRDNSKNTLYLEMSSLRAEDTAVYFCARGPGYNWLDPWGQGTLVTVSS VL: EIVMTQSPATLSVSPGERATLSCRASQSVSRNLAWYQQKPGQAPRLLIYGASTRATGVPARFSGSGSGTEFTLTISSLQSEDFAVFHCQQYNNRPLTFGGGTEVEIK	3.97
H1M2692N (antibody, mouse IgG1, V domains shown) VH: EVQLVESGGGLVQPGGSLRLSCAASGFSFDDYTMHWVRQPPGKGLEWVSGISWNSGSIGYADSVKGRFTISRDNAKNSLYLQMNSLRAGDTALYYCAKDNSGYGYYYYYGMDVWGQGTTVTVSS VL: EIVMTQSPATLSVSPGERATLSCRASQSVSSNLAWYQQKPGQAPRLLIYGASTRATGIPARFSGSGSGTEFTLTISSLQSEDFAVYYCQQYYNWPLTFGGGTKVEIK	359
H2M2777N (antibody, mouse IgG2, V domains shown) VH: QVQLVESGGGVVQPGRSLRLSCIASGFTFRSYGMHWVRQAPGKGLEWVAMIYYDGNNKYYADSVRGRFTISRDNSKNTLYLQMNSLRADDTAVYFCARGPGYNWLDPWGQGTLVTVSS VL: EIVMTQSPATLSVSPGERATLSCRASQSVSSNLAWYQQKPGQAPRLLIYGASTRATGIPARFSGSGSGTEFTLTISSLQSEDFAVYYCQQYNNRPLTFGGGTKVEIK	4.86
H2M2707N (antibody, mouse IgG2, V domains shown) VH: QVQLVESGGGVVQPGRSLRLSCIASGFTFRSYGMHWVRQAPGKGLEWVAMIYYDGNNKYYADSVRGRFTISRDNSKNTLYLQMNSLRADDTAVYFCARGPGYNWLDPWGQGTLVTVSS VL: EIVMTQSPATLSVSPGERATLSCRASQSVSSNLAWYQQKPGQAPRLLIYGASTRATGIPARFSGSGSGTEFTLTISSLQSEDFAVYYCQQYNNRPLTFGGGTKVEIK	7.21
H2M2775N (antibody, mouse IgG2, V domains shown) VH: QVQLVESGGGVVQPGRSLRLSCAASGFTFRSFGMHWVRQAPGRGLEWVAMIYFDGKNKYYADSVRGRFTISRDNSKNTLYLEMSSLRAEDTAVYFCARGPGYNWLDPWGQGTLVTVSS VL: EIVMTQSPATLSVSPGERVILSCRASQSISRNLAWYQQKPGQAPRLLIYGATTRATGVPARFSGSGSGTEFTLTISSLQSEDFAVFYCQQYNNRPLTFGGGTEVEIK	3.38
H2M2885N (antibody, mouse IgG2, V domains shown) VH: QVQLVESGGGVVQPGRSLRLSCAASGFTFRSFGMHWVRQAPGRGLEWVAMIYFDGKNKYYADSVRGRFTISRDNSKNTLYLEMSSLRAEDTAVYFCARGPGYNWLDPWGQGTLVTVSS VL: EIVMTQSPATLSVSPGERVILSCRASQSISRNLAWYQQKPGQAPRLLIYGATTRATGVPARFSGSGSGTEFTLTISSLQSEDFAVFYCQQYNNRPLTFGGGTEVEIK	3.71
H2M2886N (antibody, mouse IgG2, V domains shown) VH: QVQLVESGGGVVQPGRSLRLSCAASGFTFRSFGMHWVRQAPGRGLEWVAMIYFDGKNKYYADSVRGRFTISRDNSKNTLYLEMSSLRAEDTAVYFCARGPGYNWLDPWGQGTLVTVSS VL: EIVMTQSPATLSVSPGERVILSCRASQSISRNLAWYQQKPGQAPRLLIYGATTRATGVPARFSGSGSGTEFTLTISSLQSEDFAVFYCQQYNNRPLTFGGGTEVEIK	8.06
H1M3544N (antibody, mouse IgG1, V domains shown) VH: EVQLVESGGGLVQPGRSLRLSCAASGFTFDDYTMHWVRQVPGKGLEWVSGISWNSGSLAYADSVKGRFTISRDNAKNSLYLQMNSLHPEDTALYYCVKDGSGYGHYSYYGLDVWGQGTTVTVSS VL: not shown	172
H2M3541N (antibody, mouse IgG2, V domains shown) VH: EVQLVESGGGLVRPGRSLRLSCAASGFTFDDYTMHWVRQAPGKGLEWVSDISWNSGTIGYADSVKGRFTISRDNAKNSLYLQMNSLRPEDTALYYCAKDMSGYAHYYYYGMDVWGQGTTVTVSS VL: not shown	53.9
H1M3542N (antibody, mouse IgG1, V domains shown) VH: EVQLVESGGGLVQPGRSLRLSCVASGFPFADYTMHWVRQAPGKGLEWVSDISWNSGSKGYADSVKGRFTISRDNAKNSLYLQMNSLRTEDTAFYYCAKDMSGYAHYFYYGMDVWGQGTTVTVSS VL: not shown	29.2
H2M3540N (antibody, mouse IgG2, V domains shown) VH: QVHLEESGGGVVQPGRSLRLSCSASGFTFSSYAMHWVRQAPGKGLEWVAVIWYDGTNKYYLDSVKGRFTISRDNSKNTLFLQMNSLRAEDTAVYYCARDRGSIITHWGQGTLVTVSS VL: DIQMTQSPSSLSASIGDRVTITCRASQNISSYLNWYQQKPGKAPKLLIYAASSLQSGVPSRFSGSGSGTDFTLTISSLQPEDFATYYCQQTYSTPPITFGQGTRLEIK	12.5
H2M3543N (antibody, mouse IgG2, V domains shown) VH: EVQLVESGGGLVQPGRSLRLSCAASGFTFDDYTMHWVRQAPGKGLEWVSDISWNSGSIGYADSVKGRFTVSRDNAKNSLYLQMNSLRGEDTALYYCAKDMSGYAHYGYYGMDVWGQGTTVTVSS VL: DIQMTQSPSSLSASVGDRVTITCRASQSIRNYLNWYQQKPGKVPKLLIYAASSLQSGVPSRFSGSGSGTDFTLTISSLQPEDFATYYCQQSYSNPPITFGQGTRLEIK	13.1
